Assay results reported in patent publication US9096835B2, “DNA polymerase” (Medical Research Council, priority 2003, dated 2015).
Values joined by “and” are separate entries in the source; they are usually repeats but may differ in a detail not shown here. Identical values can stand only once. “Also recorded” adds a separate entry of the source.

Experiments:
Type in all cases: biochemical
[1] = PCR with all four dNTPs replaced by αS dNTPs; details: 50 cycle PCR, 50 μM αS dNTPs
Method: (§1) A PCR assay was used to screen and rank clones. Briefly, clones were normalized for activity in PCR with matched primers 3, 4 and activity with mismatched primers 1 and 2 (1 μM each) determined at minimal cycle number (15-25 cycles). Extension capability for different mismatches was determined by the same assay using mismatch primers 2 (C•C mismatch), 5 (A•A mismatch), 6 (G•G mismatch), 7 (G•A mismatch) with matched primer 3 or primer 1 (A•G mismatch) with matched primer 4. Incorporation of unnatural substrates in 50 cycle PCR was carried out using standard conditions and 50 μM […] dNTPs (Promega) or 50 μM FITC-12-dATP (Perkin-Elmer), Rhodamine-5-dUTP (Perkin-Elmer) or Biotin-16-dUTP (Roche) with equivalent amounts of the other 3 dNTPs (all 50 μM). Long PCR was carried out using a two-step cycling protocol as described (22) 94° C. for 2 minutes, followed by 20 cycles of (94° C. 15 sec, 68° C. 30 min) using 5 ng of phage λ DNA (New England Biolabs) template and either primers 9, 10, 11 with primer 12 or primer 13 with primers 10, 14.

[2] = system: primer-template DNA substrates; assay: Processivity primer extension assay with and without trap DNA
Method: Processivity was measured using a primer extension assay the presence and absence of trap DNA. Termination probabilities were calculated according to the method of Kokoska et al.
Oligonucleotide primer 32 (5′-GCGGTGTAGAGACGAGTGCGGAG-3′) (SEQ ID NO: 117) was ^32P-labelled and annealed to the template 33 (5′-CTCTCACAAGCAGCCAGGCAAGCTCCGCACTCGTCTCTACACCGCTCCGC-3′ (SEQ ID NO: 118)) (at a primer/template ratio of molar 1/1.5). wtTaq (0.0025 nM; 0.025 nM; 0.25 nM), M1(0.05 nM; 0.5 nM; 5 nM), and M4 (0.05 nM; 0.5 nM; 5 nM) were preincubated with the primer-template DNA substrates (10 nM) in 10 mM Tris-HCl at pH 9.0, 5 mM MgCl2, 50 mM KCl, 0.1% Triton X 100 at 25° C. for 15 min. Reactions were initiated by addition of 100 μM dNTPs with or without trap DNA (1000-fold excess of unlabeled primer-templates). Reactions were performed at 60° C. for 2 min. […] Thus, in the presence of trap DNA, all DNA synthesis resulted from a single DNA binding event. Gel band intensities were calculated using a Phosphoimager and ImageQuant (both Molecular Dynamics) software. Percentage of polymerase molecules, which extended primers to the end of the template was calculated using the formula: In×100%/(I1+I2+ . . . +In), where In is the intensity of the band at position 22 or 23; I1, I2 . . . is the intensity of the band at position 1, 2 . . . . Termination probabilities (τ) were calculated according to the method of Kokoska et al^1, whereby t at a particular template position was calculated as the intensity of the band at this position divided by the sum of the intensity of this band and the band intensities of all longer products.

[3] = system: primer-template duplex with matched or mismatched 3′ terminus; assay: Steady-state extension kinetics, gel-based assay; details: incorporated base is dCTP
Method: Kinetic parameters were determined using a gel-based assay essentially as described (16). Primers 15, 16, 17 (3′ base=G, C, A respectively) were ^32P-labeled and annealed to one of template strands 18, 19, 20 (template base=C, G, A respectively) or 21 (template base C different context). Duplex substrates were used at 50 nM final concentration in 1× Taq buffer with various concentrations of enzyme and dNTP. Reactions were carried out at 60° C. for times whereby <20% of primer-template was utilized at the highest concentration of dNTP.
Extension and incorporation kinetics of M1 and M4 for a selection of mismatches were measured using a gel-based steady-state kinetic assay (Goodman) (Tables 1 & 2). M1 and M4 respectively extend a C•C mispair 390 and 75-fold more efficiently than wtTaq. […] The gain in extension efficiency derives predominantly from increased relative Vmax values for the mutant polymerases, while Km for nucleotide substrates remains largely unchanged. For most DNA polymerases the relative efficiency of extending a given mispair (f0ext) is similar to the relative efficiency of forming it (finc) (Goodman 1993, Goodman 1990, Washington 2001). Indeed, M1 and M4 respectively incorporate dCTP opposite template base C 206- and 29-fold more efficiently than wtTaq (Table 2).

[4] = system: primers with 3′ transversion mismatches; assay: Mismatch extension PCR assay; details: G•A, C•C, G•G mismatched primers
Method: as §1

[5] = system: primers with an abasic site seven bases from their 3′ end; assay: Abasic site bypass in PCR; details: 176 bp product, 20 cycles of PCR
Method: FIG. 10. A list of polymerases selected to extend four mismatches were assayed for their ability to extend abasic sites in PCR. Primers with an abasic site seven bases from their 3′ end were designed. Such primers will prevent exponential amplification of the target sequence, restricting it to […] amplification, unless the abasic site is bypassed. […] (A) Screen which identified clone A10. (B) A further 4 polymerases that display good abasic site bypass. Lane M: markers, Hae III digest of Φ X174.
A list of polymerases selected to extend four mismatches were assayed for their ability to extend abasic sites in PCR (FIG. 10).

[6] = 3′-terminal base pair C · G (template base: 3′ primer base), matched

B1: M4: Taq mutant D58G, R74P, A109T, L245R, R343G, G370D, E520G, N583S, E694K, A743P; SEQ ID NO 2 (protein)
chain: MRGMLPLYEPKGRVLLVDGHHLAYRTFHALKGLTTSRGEPVQAVYGFAKSLLKALKEGGDAVIVVFDAKAPSFPHEAYGGYKAGRAPTPEDFPRQLALIKELVDLLGLTRLEVPGYEADDVLASLAKKAEKEGYEVRILTADKDLYQLLSDRIHVLHPEGYLITPAWLWEKYGLRPDQWADYRALTGDESDNLPGVKGIGEKTARKLLEEWGSLEALLKNLDRLKPAIREKILAHMDDLKLSWDRAKVRTDLPLEVDFAKRREPDRERLRAFLERLEFGSLLHEFGLLESPKALEEAPWPPPEGAFVGFVLSRKEPMWADLLALAAARGGRVHRAPEPYKALGDLKEARGLLAKDLSVLALREGLGLPPDDDPMLLAYLLDPSNTTPEGVARRYGGEWTEEAGERAALSERLFANLWGRLEGEERLLWLYREVERPLSAVLAHMEATGVRLDVAYLRALSLEVAEEIARLEAEVFRLAGHPFNLNSRDQLERVLFDELGLPAIGKTEKTGKRSTSAAVLGALREAHPIVEKILQYRELTKLKSTYIDPLPDLIHPRTGRLHTRFNQTATATGRLSSSDPNLQSIPVRTPLGQRIRRAFIAEEGWLLVALDYSQIELRVLAHLSGDENLIRVFQEGRDIHTETASWMFGVPREAVDPLMRRAAKTINFGVLYGMSAHRLSQELAIPYEEAQAFIKRYFQSFPKVRAWIEKTLEEGRRRGYVETLFGRRRYVPDLEARVKSVREPAERMAFNMPVQGTAADLMKLAMVKLFPRLEEMGARMLLQVHDELVLEAPKERAEAVARLAKEVMEGVYPLAVPLEVEVGIGEDWLSAKE
modifications: Mutant Thermus aquaticus DNA polymerase
Q: What does the source list for B1?
A: PCR amplification with all four αS dNTPs [1]: to lesser extent; processivity compared with wtTaq ([2]; even at the lowest enzyme concentrations): processivity equal (or higher) than wtTaq; bound polymerase that extended primers to the end of the template ([2]; in the presence of trap DNA (single DNA binding event)): 15%; termination probability ([2]; positions 2 through 5): 13-35%; termination probability ([2]; positions 6 and 7): 2-4%; Vmax ([3]; 3′-terminal base pair A · A (template base: 3′ primer base)): 8.5 % Min^−1; Km ([3]; 3′-terminal base pair A · A): 32.9 µM; Ratio of fext, fext (mutant polymerase)/fext (wtTaq) ([3]; 3′-terminal base pair A · A): 5.7; fext, f (mismatched 3′terminus)/f (matched terminus) ([3]; 3′-terminal base pair A · A): 3.8 × 10^−6; Vmax ([3]; 3′-terminal base pair A · G (template base: 3′ primer base)): 50.0 % Min^−1; Km ([3]; 3′-terminal base pair A · G): 259 µM; Ratio of fext, fext (mutant polymerase)/fext (wtTaq) ([3]; 3′-terminal base pair A · G): 7.0; fext, f (mismatched 3′terminus)/f (matched terminus) ([3]; 3′-terminal base pair A · G): 1.5 × 10^−6; Vmax ([3]; 3′-terminal base pair C · C (template base: 3′ primer base)): 11.1 % Min^−1; Km ([3]; 3′-terminal base pair C · C): 36.6 µM; Ratio of fext, fext (mutant polymerase)/fext (wtTaq) ([3]; 3′-terminal base pair C · C): 75 and 75.3; fext, f (mismatched 3′terminus)/f (matched terminus) ([3]; 3′-terminal base pair C · C): 4.5 × 10^−6; Km [3, 6]: 0.012 µM; Vmax [3, 6]: 817.0 % Min^−1; Vmax ([3]; 3′-terminal base pair G · A (template base: 3′ primer base)): 7.5 % Min^−1; Km ([3]; 3′-terminal base pair G · A): 29 µM; Ratio of fext, fext (mutant polymerase)/fext (wtTaq) ([3]; 3′-terminal base pair G · A): 7.0; fext, f (mismatched 3′terminus)/f (matched terminus) ([3]; 3′-terminal base pair G · A): 3.8 × 10^−6; Vmax ([3]; 3′-terminal base pair G · G (template base: 3′ primer base)): 70.6 % Min^−1; Km ([3]; 3′-terminal base pair G · G): 107 µM; Ratio of fext, fext (mutant polymerase)/fext (wtTaq) ([3]; 3′-terminal base pair G · G): 7.6; fext, f (mismatched 3′terminus)/f (matched terminus) ([3]; 3′-terminal base pair G · G): 9.7 × 10^−6; extension of 3′ transversion mismatches in PCR [4]: greatly increased ability to extend; also recorded: generate amplification products

B2: 3A10: third round clone, abasic site bypass; SEQ ID NO: 86 (protein)
chain: MAMLPLFEPKGRVLLVDGHHLAYRTFFALKGLTTSRGEPVQVVYGFAKSLLKALKEDGYKAVFVVFDAKAPSFRHKAYEAYRAGRAPTPQDFPRQLALIKELVDLLGFTRLEVPGYEADDVLATLAKKAEKEGYEVRILTADRGLYQLVSDRVAVLHPEGHLITPEWLWEKYGLRPEQWVDFRALVGDPSDNLPGVKGIGEKTALKLLKEWGSLENLLKNLDRVKPENVREKIKAHLEDLRLSLELSRVRTDLPLEVDLAQGREPDREGLRAFLERLEFGSLLHEFGLLESPKALEEAPWPPPEGAFVGFVLSRKEPMWADLLALAAARGGRVHQAPEPYKALRDLKEARGLLAKDLSVLALREGLGLPPGDDPMLLAYLLDPSNTTPEGVARRYGGEWTEEAGERAALSERLFANLWGRLEGEERLLWLYREVERPLSAVLAHMETTGVRLDVAYLRALSLEVAEEIARLEAEVFRLAGRPFNLNSRDQLERVLFDELGLPAIGKTEKTGKRSTSAAVLEALREAHPIVEKILQYRELTKLKSTYIDPLPDLIHPRTGRLHTRFNQTATATGRLSSSDPNLQNIPVRTPLGQRIRRAFIAEEGWLLVVLDYSQMELRVLAHLSGDENLIRVFQEGKDIHTQTASWMFGVPPEAVDPLMRRAAKTVNFGVLYGMSAHRLSQELSIPYEEAVAFIERYFQSFPKVRAWIEKTLEEGRRRGYVETLFGRRRYVPDLNARMKSVRGAAERMAFNMPVQGTAADLMKLAMVKLFPRLREMGARMLLQVHDELLLEAPQARAEEVAALAKEAMEKAYPLAVPLEVEVGIGEDWLSAKE
modifications: Mutant Taq polymerase
Q: With B2 as the molecule, how does the “amplification product in PCR with abasic site primers” value [5] read?
A: produced an amplification product

B3: 3D1: third round clone, four mismatch extension; SEQ ID NO: 98 (protein)
chain: MAMLPLFEPKGRVLLVDGHHLAYRTFFALKGPTTSRGEPVQVVYGFAKSLLKALKEDGYKAVFVVFDAKAPSFRHKAYEAYRAGRAPTPEDFPRQLALIKELVDLLGFTRLEVPGYEADDVLATLAKKAEKEGYEVRILTADRGLYQLVSDRVAVLHPEGHLITPEWLWEKYGLRPEQWVDFRALVGDPSDNLPGVKGIGEKTALKLLKEWGSLENLLKNLDRVKPENVREKIKAHLEDLRLSLELSRVRTDLPLEVDLAQRREPDREGLRAFLERLEFGSLFHEFGLLESPKALEEAPWPPPEGAFVGFVLSRKEPMWADLLALAAARGGRVHRAPEPYKALRDLKEARGLLAKDLSVLALREGLGLPPGDDPMLLAYLLDPSNTTPEGVARRYGGEWTEEAGERAALSERLFANLWGRLEGEERLLWLYREVERPLSAVLAHMEATGVRLDVAYLRALSLEVAEEIARLEAEVFRLAGHPFNLNSRDQLEMVLFDELRLPALGKTQKTGKRSTSAAVLEALREAHPIVEKILQYRELTKLKSTYIDPLSDLIHPRTGRLHTRFNQTATATGRLSSSDPNLQNIPVRTPLGQRIRRAFIAEEGWLLVVLDYSQIELRVLAHLSGDENLIRVFQEGRDIHTETASWMFGVPREAVDPLMRRAAKTINFGVLYGMSAHRLSQELAIPYEEAQAFIERYFQSFPKVRAWIEKTLEEGRRRGYVETLFGRRRYVPDLEARVKSVREAAERMAFNMPVQGTAADLMKLAMVKLFPRLGETGARMLLQVHDELVLEAPKERAEAVARLAKEAMEGVYPLAVPLEVEVGIGEDWLSAKG
modifications: Mutant Taq polymerase
Q: With B3 as the molecule, how does the “amplification product in PCR with abasic site primers” value [5] read?
A: produced an amplification product
